In this assay the target is 天然CHIKV-E2蛋白 (Chikungunya virus (Ross株)).

B1: 2A2-E10(HRP) (antibody, V domains shown)
VH: EVQLVESGGGLVQPKGSLKLSCAASGFTHNTYNMNWVRQAPGKGLEWVARIRSGSNMYATYYADSVKDRFTISRDDSQSILYLQMNNLKTEDTVMYYCERPDYSGSSYFDYWGQGTTLTVSS
VL: DIQLTQPPSYLAASPGETITINCRASKSYSKYCLAWYQEKPGKTNKLLIYSGSTLQSGIPSRFSGSGSGTDFTLTISSLEPEDFAMYYCQQGNMYPYTFGGGTKLEIK
Turning to B1, the DAS-ELISA检测灵敏度 came to 1e+06 PFU/mL.
